Experiments:
Settings in all cases: protein: synthetic; tags: synthetic 39-mer peptide made by solid phase synthesis, UCSF Biotechnology Resource Core; label: 5'-32P; hairpin with bulge
[1] = biological target: T1, Tat39 (Tat3B; HIV Tat residues 48-86) (HIV-1, UniProt P04608 P04608:48-86); test: EMSA; 1:1 Kd; 2-3:1 Kd 200 nM; 10 mM Tris pH 7.5, 70 mM NaCl, 4 C
T1 chain: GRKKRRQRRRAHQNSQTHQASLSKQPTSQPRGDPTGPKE

[2] = biological target: T1, Tat39 (Tat3B; HIV Tat residues 48-86); test: EMSA; 1:1 Kd; 2-3:1 Kd 30 nM; Krel 4
[3] = biological target: T1, Tat39 (Tat3B; HIV Tat residues 48-86); test: EMSA; 1:1 Kd; Krel 1
[4] = biological target: T1, Tat39 (Tat3B; HIV Tat residues 48-86); test: EMSA; 50 pM oligo; 1:1 Kd; 2-3:1 Kd 8000-20000 nM; Krel 10
[5] = biological target: T1, Tat39 (Tat3B; HIV Tat residues 48-86); test: EMSA; 5 pM oligo; 1:1 Kd; Krel 4

B1: TAR 59-mer (1-59) (ssRNA)
RNA: GGGUCUCUCUGGUUAGACCAGAUCUGAGCCUGGGAGCUCUCUGGCUAACUAGGGAACCC
Question: How did the Kd [1] turn out when B1 was run?
Answer: 0.04 µM

B2: A:P=S TAR 59-mer (1-59) (ssRNA)
RNA: GGGUCUCUCUGGUUAGACCAGAUCUGAGCCUGGGAGCUCUCUGGCUAACUAGGGAACCC
modifications: PS linkages at A residues
Question: B2 was tested. Which Kd [2] did it give?
Answer: < 0.01 µM

B3: 5-BrU TAR 59-mer (1-59) (ssRNA)
RNA: GGGUCUCUCUGGUUAGACCAGAUCUGAGCCUGGGAGCUCUCUGGCUAACUAGGGAACCC
modifications: 5-bromouridine in place of U
Question: For B3, which Kd [3] is on record?
Answer: 0.04 µM

Question: How did the Kd [4] turn out when GCCAGAUCUGAGCCUGGGAGCUCUCUGGC (XNA, 2'-OMe, PS) [2'-OMe, P=S delta-TAR #2195 29-mer (16-45(-A17))] was run?
Answer: 0.004 µM

Question: And the Kd [5]?
Answer: < 0.01 µM

Reference: patent US6368863, “Reagents and methods for modulating gene expression through RNA mimicry” (ISIS Pharmaceuticals Inc.)
